Assays:
[1] = target: FGFR1 (UniProt P11362); assay: phosphorylation enrichment, bacterial display (enrichment ratio); higher = better substrate or ligand; peptides without Tyr show the background
[2] = target: Fes (UniProt P07332); assay: as above
[3] = target: FGFR3 (UniProt P22607); assay: as above
[4] = target: MERTK (UniProt Q12866); assay: as above
[5] = target: EPHB1 (UniProt P54762); assay: as above
[6] = test system: c-Src; assay: as above
[7] = target: Hck (UniProt P08631); assay: as above
[8] = target: Jak2 (UniProt O60674); assay: as above
[9] = target: Fyn (UniProt P06241); assay: as above
[10] = target: EPHB2 (UniProt P29323); assay: as above
[11] = test system: AncSZ; assay: as above
[12] = test system: Fer (mouse); assay: as above
[13] = test system: c-Abl (mouse); assay: as above
[14] = target: c-Src SH2; assay: SH2 binding enrichment of the phosphorylated peptide, bacterial display (enrichment ratio); higher = better substrate or ligand; peptides without Tyr show the background
[15] = target: SHP2-C SH2; assay: as above
[16] = target: Grb2 SH2 (UniProt P62993); assay: as above
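Throughout, for SH2 binding enrichment of the phosphorylated peptide, bacterial display: peptide library displayed on the E. coli surface as eCPX fusions, selected cells deep-sequenced, score is each peptide's frequency after selection divided by its frequency in the input.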
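Throughout, for phosphorylation enrichment, bacterial display: 11-residue human phosphosite peptides and single-mutation variants displayed on the E. coli surface, counted by deep sequencing, each peptide's frequency after selection divided by its frequency in the unselected input library; frequency after pTyr selection over input frequency; kinase dosed for 20-30% of maximal phosphorylation in three min.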

Sequence of Grb2 SH2 (P62993 whole entry, looked up, the tested form may be a part): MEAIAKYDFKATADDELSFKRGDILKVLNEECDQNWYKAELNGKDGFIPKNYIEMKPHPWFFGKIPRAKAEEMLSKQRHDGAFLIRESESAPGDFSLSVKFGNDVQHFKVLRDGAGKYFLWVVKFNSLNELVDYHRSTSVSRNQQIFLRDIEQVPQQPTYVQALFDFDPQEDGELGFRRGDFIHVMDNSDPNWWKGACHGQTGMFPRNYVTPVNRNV
Sequence of FGFR1 (P11362 whole entry, looked up): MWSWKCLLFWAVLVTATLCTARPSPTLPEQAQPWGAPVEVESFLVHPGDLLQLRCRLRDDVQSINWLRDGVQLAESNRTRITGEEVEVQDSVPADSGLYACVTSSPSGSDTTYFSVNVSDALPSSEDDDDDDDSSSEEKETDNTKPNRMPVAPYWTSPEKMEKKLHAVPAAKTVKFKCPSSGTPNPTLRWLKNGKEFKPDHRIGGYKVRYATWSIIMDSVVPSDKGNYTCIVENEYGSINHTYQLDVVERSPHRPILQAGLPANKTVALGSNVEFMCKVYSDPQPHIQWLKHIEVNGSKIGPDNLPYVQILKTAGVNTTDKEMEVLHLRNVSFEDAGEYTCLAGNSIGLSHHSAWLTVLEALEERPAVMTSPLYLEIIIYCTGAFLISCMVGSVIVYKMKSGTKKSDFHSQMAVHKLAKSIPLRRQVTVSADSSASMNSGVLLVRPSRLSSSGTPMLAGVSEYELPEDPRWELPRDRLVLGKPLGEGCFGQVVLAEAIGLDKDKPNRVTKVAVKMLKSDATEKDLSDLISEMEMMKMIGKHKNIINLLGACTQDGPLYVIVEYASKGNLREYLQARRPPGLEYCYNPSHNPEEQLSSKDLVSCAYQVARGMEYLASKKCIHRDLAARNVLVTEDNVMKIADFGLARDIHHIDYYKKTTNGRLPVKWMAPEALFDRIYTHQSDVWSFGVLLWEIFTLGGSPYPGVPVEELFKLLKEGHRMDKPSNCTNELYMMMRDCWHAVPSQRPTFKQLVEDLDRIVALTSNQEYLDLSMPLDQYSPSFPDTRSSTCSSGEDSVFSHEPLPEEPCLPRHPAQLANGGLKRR
Sequence of Fyn (P06241 whole entry, looked up): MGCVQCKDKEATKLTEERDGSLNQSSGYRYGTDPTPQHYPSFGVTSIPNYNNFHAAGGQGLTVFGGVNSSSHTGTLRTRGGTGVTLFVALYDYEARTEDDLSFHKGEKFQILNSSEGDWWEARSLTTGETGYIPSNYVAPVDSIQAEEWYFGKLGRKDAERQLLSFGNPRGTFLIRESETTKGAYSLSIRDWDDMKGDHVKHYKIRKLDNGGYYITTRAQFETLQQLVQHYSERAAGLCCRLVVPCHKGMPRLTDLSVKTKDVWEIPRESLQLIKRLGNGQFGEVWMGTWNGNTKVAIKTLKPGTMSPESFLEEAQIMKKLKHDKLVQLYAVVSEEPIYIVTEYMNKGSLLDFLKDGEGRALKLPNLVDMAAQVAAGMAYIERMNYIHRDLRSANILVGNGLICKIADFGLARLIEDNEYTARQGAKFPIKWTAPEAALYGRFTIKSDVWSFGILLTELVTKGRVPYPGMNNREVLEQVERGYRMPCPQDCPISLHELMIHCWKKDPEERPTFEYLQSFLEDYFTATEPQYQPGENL
Sequence of MERTK (Q12866 whole entry, looked up): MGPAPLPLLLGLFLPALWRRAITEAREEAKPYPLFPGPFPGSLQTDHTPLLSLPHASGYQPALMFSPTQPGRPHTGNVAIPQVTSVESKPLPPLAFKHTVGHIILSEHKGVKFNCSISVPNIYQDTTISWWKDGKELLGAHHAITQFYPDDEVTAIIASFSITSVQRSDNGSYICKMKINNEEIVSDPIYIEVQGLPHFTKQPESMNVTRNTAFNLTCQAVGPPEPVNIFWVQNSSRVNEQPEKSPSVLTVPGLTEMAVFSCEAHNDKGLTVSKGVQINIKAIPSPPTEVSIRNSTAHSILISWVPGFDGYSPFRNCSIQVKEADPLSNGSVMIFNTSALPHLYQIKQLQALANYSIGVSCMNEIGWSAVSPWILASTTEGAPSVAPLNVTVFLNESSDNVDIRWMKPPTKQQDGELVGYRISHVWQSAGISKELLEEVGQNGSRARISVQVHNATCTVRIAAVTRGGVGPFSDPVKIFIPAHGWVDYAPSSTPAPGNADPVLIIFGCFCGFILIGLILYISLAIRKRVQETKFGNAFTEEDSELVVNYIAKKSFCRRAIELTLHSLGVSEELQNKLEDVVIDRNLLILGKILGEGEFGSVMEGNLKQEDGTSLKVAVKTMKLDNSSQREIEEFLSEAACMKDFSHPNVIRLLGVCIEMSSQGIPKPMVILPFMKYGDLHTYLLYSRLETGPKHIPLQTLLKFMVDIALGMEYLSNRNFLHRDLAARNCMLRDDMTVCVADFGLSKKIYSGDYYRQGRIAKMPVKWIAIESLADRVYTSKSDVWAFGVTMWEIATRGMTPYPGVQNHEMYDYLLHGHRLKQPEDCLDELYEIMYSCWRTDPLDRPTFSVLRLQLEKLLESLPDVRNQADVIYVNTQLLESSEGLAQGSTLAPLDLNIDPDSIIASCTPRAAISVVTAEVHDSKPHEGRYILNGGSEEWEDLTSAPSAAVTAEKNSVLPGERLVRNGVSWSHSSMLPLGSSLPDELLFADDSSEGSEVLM
Sequence of EPHB1 (P54762 whole entry, looked up): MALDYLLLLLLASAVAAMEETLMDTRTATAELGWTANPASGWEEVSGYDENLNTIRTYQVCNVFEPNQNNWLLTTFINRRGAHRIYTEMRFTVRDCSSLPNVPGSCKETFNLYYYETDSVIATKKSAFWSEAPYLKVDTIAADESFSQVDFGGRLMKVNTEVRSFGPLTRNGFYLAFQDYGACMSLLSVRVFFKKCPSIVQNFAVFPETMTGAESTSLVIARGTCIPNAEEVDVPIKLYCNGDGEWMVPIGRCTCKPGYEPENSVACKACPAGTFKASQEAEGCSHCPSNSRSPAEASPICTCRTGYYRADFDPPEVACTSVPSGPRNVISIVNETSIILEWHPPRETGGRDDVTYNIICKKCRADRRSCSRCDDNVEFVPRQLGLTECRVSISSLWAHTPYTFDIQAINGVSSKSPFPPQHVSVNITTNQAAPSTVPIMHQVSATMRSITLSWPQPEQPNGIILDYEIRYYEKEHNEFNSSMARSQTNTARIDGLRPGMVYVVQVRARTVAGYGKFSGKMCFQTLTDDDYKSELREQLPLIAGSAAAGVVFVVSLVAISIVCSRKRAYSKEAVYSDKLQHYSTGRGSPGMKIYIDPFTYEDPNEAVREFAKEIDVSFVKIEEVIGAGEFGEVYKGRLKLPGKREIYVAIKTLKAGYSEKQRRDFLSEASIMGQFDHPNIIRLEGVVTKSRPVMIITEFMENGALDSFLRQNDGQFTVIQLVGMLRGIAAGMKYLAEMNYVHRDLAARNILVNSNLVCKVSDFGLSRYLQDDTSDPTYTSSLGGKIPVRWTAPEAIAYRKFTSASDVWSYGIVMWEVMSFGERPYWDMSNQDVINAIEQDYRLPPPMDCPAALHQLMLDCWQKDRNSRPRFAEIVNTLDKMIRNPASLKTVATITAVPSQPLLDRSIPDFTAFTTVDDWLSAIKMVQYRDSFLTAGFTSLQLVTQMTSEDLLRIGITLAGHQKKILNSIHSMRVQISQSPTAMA
Sequence of EPHB2 (P29323 whole entry, looked up): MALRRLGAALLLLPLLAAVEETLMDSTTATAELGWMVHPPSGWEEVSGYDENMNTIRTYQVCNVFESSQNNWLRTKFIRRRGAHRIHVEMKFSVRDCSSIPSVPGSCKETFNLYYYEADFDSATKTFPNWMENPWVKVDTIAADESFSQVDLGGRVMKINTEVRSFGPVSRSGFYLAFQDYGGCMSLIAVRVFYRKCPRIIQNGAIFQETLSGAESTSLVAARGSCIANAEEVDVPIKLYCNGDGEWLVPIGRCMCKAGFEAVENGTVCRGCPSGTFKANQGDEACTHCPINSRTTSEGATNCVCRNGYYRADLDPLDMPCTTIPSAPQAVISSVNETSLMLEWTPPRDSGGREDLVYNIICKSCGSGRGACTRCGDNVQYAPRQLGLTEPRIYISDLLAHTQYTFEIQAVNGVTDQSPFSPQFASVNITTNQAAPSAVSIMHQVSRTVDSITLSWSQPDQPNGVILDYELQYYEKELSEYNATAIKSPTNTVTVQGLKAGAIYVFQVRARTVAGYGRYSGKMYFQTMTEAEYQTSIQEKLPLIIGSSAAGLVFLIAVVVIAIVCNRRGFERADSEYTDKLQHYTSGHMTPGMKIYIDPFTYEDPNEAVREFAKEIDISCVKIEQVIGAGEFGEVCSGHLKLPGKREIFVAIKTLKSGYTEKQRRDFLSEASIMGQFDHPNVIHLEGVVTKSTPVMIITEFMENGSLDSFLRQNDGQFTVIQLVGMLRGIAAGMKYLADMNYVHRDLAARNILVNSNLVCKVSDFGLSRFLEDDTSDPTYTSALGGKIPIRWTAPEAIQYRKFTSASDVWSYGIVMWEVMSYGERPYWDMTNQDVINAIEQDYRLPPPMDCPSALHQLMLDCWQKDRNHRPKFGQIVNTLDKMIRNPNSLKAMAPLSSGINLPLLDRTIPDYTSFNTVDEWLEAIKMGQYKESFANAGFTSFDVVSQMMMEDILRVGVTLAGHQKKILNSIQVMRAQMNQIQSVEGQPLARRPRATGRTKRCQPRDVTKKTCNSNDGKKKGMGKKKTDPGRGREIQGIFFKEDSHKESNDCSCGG

SVTCTDSPALN [TP53_Y126_Y126D]
phosphorylation enrichment [1]: 0.491
phosphorylation enrichment [2]: 1.13
phosphorylation enrichment [3]: 0.805
phosphorylation enrichment [4]: 0.351
phosphorylation enrichment [5]: 0.6
phosphorylation enrichment [6]: 0.427
phosphorylation enrichment [7]: 0.474
phosphorylation enrichment [8]: 0.958
phosphorylation enrichment [9]: 0.447
phosphorylation enrichment [10]: 0.564
phosphorylation enrichment [11]: 0.975
phosphorylation enrichment [12]: 0.567
phosphorylation enrichment [13]: 0.847
SH2 binding enrichment [14]: 0.419
SH2 binding enrichment [15]: 0.662
SH2 binding enrichment [16]: 0.667

CEAMEYLESKQ [BTK_Y511]
phosphorylation enrichment [1]: 0.655
phosphorylation enrichment [2]: 1.95
phosphorylation enrichment [3]: 1.01
phosphorylation enrichment [4]: 0.688
phosphorylation enrichment [5]: 0.882
phosphorylation enrichment [6]: 0.839
phosphorylation enrichment [7]: 0.751
phosphorylation enrichment [8]: 1.89
phosphorylation enrichment [9]: 0.557
phosphorylation enrichment [10]: 0.811
phosphorylation enrichment [11]: 1.94
phosphorylation enrichment [12]: 0.788
phosphorylation enrichment [13]: 1.36
SH2 binding enrichment [14]: 0.402
SH2 binding enrichment [15]: 0.553
SH2 binding enrichment [16]: 0.676

RSGIYYKPESL [L2HGDH_Y103_H98R]
phosphorylation enrichment [1]: 5.07
phosphorylation enrichment [2]: 0.915
phosphorylation enrichment [3]: 3.3
phosphorylation enrichment [4]: 17
phosphorylation enrichment [5]: 2.37
phosphorylation enrichment [6]: 2.6
phosphorylation enrichment [7]: 4.86
phosphorylation enrichment [8]: 2.29
phosphorylation enrichment [9]: 2.43
phosphorylation enrichment [10]: 3.34
phosphorylation enrichment [11]: 1.17
phosphorylation enrichment [12]: 0.699
phosphorylation enrichment [13]: 45.6
SH2 binding enrichment [14]: 0.854
SH2 binding enrichment [15]: 0.745
SH2 binding enrichment [16]: 0.935

FGGTVYHSPVS [PRC1_Y511]
phosphorylation enrichment [1]: 0.473
phosphorylation enrichment [2]: 0.687
phosphorylation enrichment [3]: 0.525
phosphorylation enrichment [4]: 0.444
phosphorylation enrichment [5]: 0.535
phosphorylation enrichment [6]: 0.771
phosphorylation enrichment [7]: 0.851
phosphorylation enrichment [8]: 0.555
phosphorylation enrichment [9]: 0.588
phosphorylation enrichment [10]: 0.418
phosphorylation enrichment [11]: 0.894
phosphorylation enrichment [12]: 0.434
phosphorylation enrichment [13]: 3.96
SH2 binding enrichment [14]: 1.72
SH2 binding enrichment [15]: 2.81
SH2 binding enrichment [16]: 0.851

FSDQVYRQRRK [TH_Y230]
phosphorylation enrichment [1]: 0.474
phosphorylation enrichment [2]: 0.787
phosphorylation enrichment [3]: 0.568
phosphorylation enrichment [4]: 0.649
phosphorylation enrichment [5]: 0.557
phosphorylation enrichment [6]: 0.774
phosphorylation enrichment [7]: 0.493
phosphorylation enrichment [8]: 0.658
phosphorylation enrichment [9]: 0.615
phosphorylation enrichment [10]: 0.663
phosphorylation enrichment [11]: 0.853
phosphorylation enrichment [12]: 0.551
phosphorylation enrichment [13]: 0.735
SH2 binding enrichment [14]: 0.421
SH2 binding enrichment [15]: 0.446
SH2 binding enrichment [16]: 0.634

RLNWIYFKDQT [RS1_Y165_YF]
phosphorylation enrichment [1]: 1.17
phosphorylation enrichment [2]: 2.3
phosphorylation enrichment [3]: 1.35
phosphorylation enrichment [4]: 0.49
phosphorylation enrichment [5]: 1.08
phosphorylation enrichment [6]: 0.855
phosphorylation enrichment [7]: 1.02
phosphorylation enrichment [8]: 2.15
phosphorylation enrichment [9]: 0.757
phosphorylation enrichment [10]: 0.918
phosphorylation enrichment [11]: 2.98
phosphorylation enrichment [12]: 0.774
phosphorylation enrichment [13]: 1.35
SH2 binding enrichment [14]: 0.842
SH2 binding enrichment [15]: 1.01
SH2 binding enrichment [16]: 1.01

RGDCTYAPLLG [AR_Y269_M268T]
phosphorylation enrichment [1]: 1.42
phosphorylation enrichment [2]: 1.46
phosphorylation enrichment [3]: 1.26
phosphorylation enrichment [4]: 7.45
phosphorylation enrichment [5]: 8.38
phosphorylation enrichment [6]: 6.35
phosphorylation enrichment [7]: 9.33
phosphorylation enrichment [8]: 1.18
phosphorylation enrichment [9]: 8.94
phosphorylation enrichment [10]: 9.28
phosphorylation enrichment [11]: 1.21
phosphorylation enrichment [12]: 1.33
phosphorylation enrichment [13]: 2.55
SH2 binding enrichment [14]: 0.896
SH2 binding enrichment [15]: 0.594
SH2 binding enrichment [16]: 0.88

SLTRLCVGENA [NLRP3_Y861_Y861C]
phosphorylation enrichment [1]: 0.471
phosphorylation enrichment [2]: 1
phosphorylation enrichment [3]: 0.685
phosphorylation enrichment [4]: 0.466
phosphorylation enrichment [5]: 0.495
phosphorylation enrichment [6]: 0.445
phosphorylation enrichment [7]: 0.534
phosphorylation enrichment [8]: 0.759
phosphorylation enrichment [9]: 0.503
phosphorylation enrichment [10]: 0.541
phosphorylation enrichment [11]: 0.809
phosphorylation enrichment [12]: 0.434
phosphorylation enrichment [13]: 2.77
SH2 binding enrichment [14]: 0.538
SH2 binding enrichment [15]: 0.589
SH2 binding enrichment [16]: 0.867

VFDMLYQVANL [USP24_Y1087_L1089V]
phosphorylation enrichment [1]: 0.943
phosphorylation enrichment [2]: 1.06
phosphorylation enrichment [3]: 0.923
phosphorylation enrichment [4]: 2.78
phosphorylation enrichment [5]: 2.75
phosphorylation enrichment [6]: 4.11
phosphorylation enrichment [7]: 4.24
phosphorylation enrichment [8]: 0.863
phosphorylation enrichment [9]: 2.92
phosphorylation enrichment [10]: 5.28
phosphorylation enrichment [11]: 1.79
phosphorylation enrichment [12]: 11.7
phosphorylation enrichment [13]: 2.06
SH2 binding enrichment [14]: 0.769
SH2 binding enrichment [15]: 1
SH2 binding enrichment [16]: 1.16

EEGESHVCSSD [DCX_Y125_Y125H]
phosphorylation enrichment [1]: 0.518
phosphorylation enrichment [2]: 1.07
phosphorylation enrichment [3]: 0.573
phosphorylation enrichment [4]: 0.528
phosphorylation enrichment [5]: 0.465
phosphorylation enrichment [6]: 0.525
phosphorylation enrichment [7]: 0.497
phosphorylation enrichment [8]: 0.945
phosphorylation enrichment [9]: 0.54
phosphorylation enrichment [10]: 0.545
phosphorylation enrichment [11]: 0.96
phosphorylation enrichment [12]: 0.519
phosphorylation enrichment [13]: 0.673
SH2 binding enrichment [14]: 0.623
SH2 binding enrichment [15]: 0.83
SH2 binding enrichment [16]: 1.25

PCLLRYLQLDF [ASB10_Y457_R453C]
phosphorylation enrichment [1]: 1.18
phosphorylation enrichment [2]: 1.72
phosphorylation enrichment [3]: 1.14
phosphorylation enrichment [4]: 0.733
phosphorylation enrichment [5]: 0.833
phosphorylation enrichment [6]: 0.502
phosphorylation enrichment [7]: 0.783
phosphorylation enrichment [8]: 1.51
phosphorylation enrichment [9]: 0.497
phosphorylation enrichment [10]: 0.538
phosphorylation enrichment [11]: 1.5
phosphorylation enrichment [12]: 0.968
phosphorylation enrichment [13]: 1.12
SH2 binding enrichment [14]: 1.26
SH2 binding enrichment [15]: 1.26
SH2 binding enrichment [16]: 1.12

IWIFHYAKGQP [MPZ_Y82_S78W]
phosphorylation enrichment [1]: 0.348
phosphorylation enrichment [2]: 1.55
phosphorylation enrichment [3]: 0.768
phosphorylation enrichment [4]: 0.446
phosphorylation enrichment [5]: 0.578
phosphorylation enrichment [6]: 0.577
phosphorylation enrichment [7]: 0.411
phosphorylation enrichment [8]: 1.28
phosphorylation enrichment [9]: 0.49
phosphorylation enrichment [10]: 0.498
phosphorylation enrichment [11]: 1.26
phosphorylation enrichment [12]: 0.459
phosphorylation enrichment [13]: 1.09
SH2 binding enrichment [14]: 0.795
SH2 binding enrichment [15]: 1.55
SH2 binding enrichment [16]: 1.18

AEYGLYRAMVR [VSX2_Y222_G223R]
phosphorylation enrichment [1]: 0.577
phosphorylation enrichment [2]: 0.768
phosphorylation enrichment [3]: 0.679
phosphorylation enrichment [4]: 2.38
phosphorylation enrichment [5]: 2.89
phosphorylation enrichment [6]: 6.94
phosphorylation enrichment [7]: 9.69
phosphorylation enrichment [8]: 0.75
phosphorylation enrichment [9]: 9.03
phosphorylation enrichment [10]: 3.62
phosphorylation enrichment [11]: 0.814
phosphorylation enrichment [12]: 0.603
phosphorylation enrichment [13]: 7.87
SH2 binding enrichment [14]: 0.566
SH2 binding enrichment [15]: 0.619
SH2 binding enrichment [16]: 0.855

QRPGLYDRPGA [HNRNPH2_Y210_P209L]
phosphorylation enrichment [1]: 0.651
phosphorylation enrichment [2]: 0.943
phosphorylation enrichment [3]: 0.773
phosphorylation enrichment [4]: 0.852
phosphorylation enrichment [5]: 0.933
phosphorylation enrichment [6]: 0.806
phosphorylation enrichment [7]: 1.22
phosphorylation enrichment [8]: 0.829
phosphorylation enrichment [9]: 0.741
phosphorylation enrichment [10]: 0.512
phosphorylation enrichment [11]: 0.737
phosphorylation enrichment [12]: 0.802
phosphorylation enrichment [13]: 1.2
SH2 binding enrichment [14]: 1.59
SH2 binding enrichment [15]: 0.513
SH2 binding enrichment [16]: 0.804

SCPANYFAFKI [FAM3D_Y65_P60S]
phosphorylation enrichment [1]: 7.58
phosphorylation enrichment [2]: 1.08
phosphorylation enrichment [3]: 5.33
phosphorylation enrichment [4]: 7.13
phosphorylation enrichment [5]: 3.97
phosphorylation enrichment [6]: 2.62
phosphorylation enrichment [7]: 1.05
phosphorylation enrichment [8]: 5.24
phosphorylation enrichment [9]: 0.901
phosphorylation enrichment [10]: 2.09
phosphorylation enrichment [11]: 1.16
phosphorylation enrichment [12]: 0.785
phosphorylation enrichment [13]: 3.31
SH2 binding enrichment [14]: 0.823
SH2 binding enrichment [15]: 0.996
SH2 binding enrichment [16]: 1.12

VNYGAYINDFN [GLB1_Y488_K493N]
phosphorylation enrichment [1]: 0.451
phosphorylation enrichment [2]: 1
phosphorylation enrichment [3]: 0.616
phosphorylation enrichment [4]: 0.469
phosphorylation enrichment [5]: 0.737
phosphorylation enrichment [6]: 0.675
phosphorylation enrichment [7]: 0.533
phosphorylation enrichment [8]: 0.748
phosphorylation enrichment [9]: 0.87
phosphorylation enrichment [10]: 1.09
phosphorylation enrichment [11]: 1
phosphorylation enrichment [12]: 0.462
phosphorylation enrichment [13]: 0.703
SH2 binding enrichment [14]: 6.95
SH2 binding enrichment [15]: 1.05
SH2 binding enrichment [16]: 9.16

GKFFQYDTWKQ [IGF2_Y116]
phosphorylation enrichment [1]: 0.407
phosphorylation enrichment [2]: 0.852
phosphorylation enrichment [3]: 0.514
phosphorylation enrichment [4]: 0.485
phosphorylation enrichment [5]: 0.498
phosphorylation enrichment [6]: 0.567
phosphorylation enrichment [7]: 0.826
phosphorylation enrichment [8]: 0.601
phosphorylation enrichment [9]: 0.43
phosphorylation enrichment [10]: 0.564
phosphorylation enrichment [11]: 0.766
phosphorylation enrichment [12]: 0.468
phosphorylation enrichment [13]: 0.582
SH2 binding enrichment [14]: 0.742
SH2 binding enrichment [15]: 0.755
SH2 binding enrichment [16]: 0.906

From the supplement of paper PMC10065799, “High-throughput profiling of sequence recognition by tyrosine kinases and SH2 domains using bacterial peptide display” (eLife, 2023)
